Two molecules from patent publication US20040086521A1, “Method for the identification of antigenic peptides” (priority 2002, published 2004) can be followed below.

The target in assay [1] is DRB1*0101 (Homo sapiens, UniProt P01903+P01911, A100R/D57E/F55L/F60I/F76Y/I96L/L162R/M171V/P40L/Q125E/R42F/V115G/Y59C). The experiment in a line: MHC peptide binding studies with synthetic peptide. The settings on record: MHC peptide binding study.
In assay [2] the target is DRB1*0401 (Homo sapiens, UniProt P01903+P01911, A100K/A169T/F76Y/I96L/K127E/L162R/M171V/N62H/P40V/Q125Y/R42H/S133A/S149N/S66Y/V115G/V209L/W38E). The experiment in a line: MHC peptide binding studies with synthetic peptide. The settings on record: MHC peptide binding study.
Assay [3] has as its target DRB5*0101 (Homo sapiens, UniProt P01903+Q30154). Briefly: MHC peptide binding studies with synthetic peptide. The settings on record: MHC peptide binding study.
Assay [4] concerns the target HLA-DR allele DRB1*0101 (human). Briefly: MHC peptide binding study with synthetic peptide.
Assay [5] deals with HLA-DR allele DRB5*0101 (human). The experiment in a line: MHC peptide binding study with synthetic peptide.
For assay [6], the target named is HLA-DR allele DRB1*0401 (human). The experiment in a line: MHC peptide binding study with synthetic peptide.

With KPGKTKTIVYQRGILLPQ, the “binding capacity to allele DRB1*0101” value in assay [1] is given as “confirmed the binding capacity”. In addition, in assay [2], the “binding capacity to allele DRB1*0401” value is “revealed the same”. The “binding capacity to allele DRB5*0101” value in assay [3] is listed as “confirmed the binding capacity”.
On to KPGKTKTIVYQRGILLPQ, for which the binding result in assay [4], in assay [5] and in assay [6] was “binds” in each case.
